# US9328143B2, “Peptide derivatives and use thereof as carriers for molecules in the form of conjugates” (VECT-HORUS, priority 2008, dated 2016)
# Where no end group is shown, it is not given here. [ ]: non-standard residue; d: D form. Rhodamine = not defined here
# How the values were obtained:
# [1] = In situ perfusion in mouse, transport across the blood-retinal barrier; type: in vivo
# Excerpt: (§1) This strategy of in situ brain perfusion normally carried out in the rat was adapted for mouse (Dagenais et al., 2000, J Cereb Blood Flow Metab., 20(2), 381-6) in order to broaden its application for evaluating the parameters of transport kinetics at the BBB and the blood-retinal barrier, in transgenic and KO mutant mice for the receptors, enzymes or transporters of active substances. It involves catheterisation of a carotid artery in anaesthetised OF 1 mice and ligature of some branches of this carotid artery (external, thyroidal, occipital) in order to specifically perfuse the internal carotid and pterygopalatine arteries, which are used to evaluate the uptake in the brain of the vectors and conjugates. The catheter makes it possible to replace general circulation by infusion with a well-controlled perfusate (bicarbonate buffer, plasma or blood) by passing by the carotid. Oxygenated Krebs bicarbonate buffer is first used to evaluate the capacities of the vectors and conjugates to gain access to the brain. After catheterisation of the carotid, endogenous blood flow is stopped by sectioning the ventricles of the heart in order to avoid the mixture of buffer with blood and elevation in blood pressure. The duration of the fixed flow-rate perfusion is monitored. The buffer perfusion can be extended up to 20 min, or up to 1 h in the presence of oxygen transporters (washed erythrocytes) for studies of receptor-mediated transport (RMT).
# In addition, the Kin of these various peptides, across the blood-retinal barrier (BRB), were also determined. Kin of SEQ ID NO: 11=1.2±0.2×10^−4 ml/s/g Kin of SEQ ID NO: 48=2.4±0.3×10^−4 ml/s/g Kin of SEQ ID NO: 73=0.0±0.0×10^−4 ml/s/g Kin of SEQ ID NO: 72=11.5±3.3×10^−4 ml/s/g Kin of SEQ ID NO: 74=1.8±0.2×10^−4 ml/s/g
# [2] = In situ brain perfusion in mouse, transport across the BBB; type: in vivo
# Procedure: The in situ brain perfusion technique (in adult male OF1 mouse) is used here to select the best vectors and to provide proof of their mechanism of action for their passage in the brain across the BBB.
# Radioactive peptides with high specific radioactivity (SRA, up to 100 Ci/mmol) are prepared by a strategy of acylation of the N-term amine function by tritiated propionic (or propanoic) anhydride or tritiated N-propionyl-succinimide (NPS).
# The tritiation reaction of peptide vectors SEQ ID NO: 11 and SEQ ID NO: 48 in the N-term position by propionylation is carried out in DMF (1 mg peptide in 100 μl to 450 μl according to solubility) by adding 0.1 equivalent of tritiated NPS for 5 min at room temperature, then 0.9 equivalent of cold NPS (non-tritiated) for 1 h, and then a new equivalent of cold NPS for 5 h. The reaction medium is then left at 4° C. overnight and purified the following day by HPLC. The SRA for each tritiated peptide is between 5 Ci/mmol and 10 Ci/mmol (theoretically on the order of 7.7 Ci/mmol). The total quantity of radioactivity prepared by synthesis is between 600 μCi and 950 μCi.
# The techniques briefly summarised below were developed to study the distribution in the brain of active substances and, in particular, the role of the BBB and, more particularly, of LDLR in the penetration of these molecules in the brain. In situ brain perfusion techniques are among the most technically demanding and the most difficult to perform in the mouse. However, in situ brain perfusion (like in vitro models) enables total control of the composition of the artificial perfusate in order to maintain the cells and vascularisation of the brain under normal physiological and anatomical conditions within the animal, without the disrupting factor of systemic distribution.
# as §1
# The study of peptide vector SEQ ID NO: 11 made it possible to determine its brain transport or transfer coefficient (Kin). The duration of brain perfusion for these experiments is 5 min with a perfusate flow rate of 2 ml/min. Thus, the calculation of the Kin (volume of distribution over time of brain perfusion) of peptide vector SEQ ID NO: 11 gives a value of 3.5±0.2×10^−4 ml/s/g.
# [3] = target: T1, hLDLR (Homo sapiens, UniProt P01130); experiment: Displacement of SEQ ID NO: 11/S-Tag on CHO-hLDLR-RFP cells (FRET); type: binding; set-up: expressed in transfected cells; details: 10 μM peptide vs 10 μM SEQ ID NO: 11/S-Tag
# Procedure: For the FRET approaches, cells are washed twice with 2 ml PBS and then incubated for 1 h at 37° C. with 250 μl peptide solution. They are again washed twice with 2 ml PBS and then twice with 1 ml PBS, and then scraped in 1 ml PBS and centrifuged for 5 min at 1,250 rpm. The supernatant is then aspirated and the cell pellet is lysed in 80 μl PBS+0.1% Triton X100. Twenty μl of each cell lysate are analysed by measuring fluorescence emission after the FRET reaction.
# A study of the structure/activity (affinity) relationships was carried out on peptide vector SEQ ID NO: 11 via the alanine scanning (Ala-scan) technique and by N- and C-term truncation in order to determine the importance of each of the 15 constitutive amino acids of this peptide. […] Briefly, the CHO-hLDLR-RFP cells used are adherent and at confluence.
# They are grown in six-well plates. Three wells of cells are used per condition.
# A solution containing 10 μM peptide SEQ ID NO: 11/S-Tag is prepared in HamF12-1% BSA culture medium. To this solution is added 10 μM peptide resulting from the Ala-scan to be evaluated (competition). […]
# [4] = target: T1, hLDLR; experiment: Binding and endocytosis of tracer-conjugated synthesised peptides in CHO-hLDLR-GFP cells (fluorescence, immunocytochemistry); type: cell-based; set-up: expressed in transfected cells; details: CHO-LDLR-GFP cells, tracer-conjugated peptide, vs control peptides
# Excerpt: GFP fluorescence is visible in green (A1, B1 and C1); that related to peptides, visualised by rhodamine or by binding of an anti-S-Tag antibody coupled to Alexa594 is visible in red (A2, B2 and C2); and the superimposing of red and green stains is visible in yellow/orange (A3, B3 and C3). […] S-Tag (a 15 amino acid peptide derived from sequence 1-15 of bovine pancreatic ribonuclease A) on the one hand can be recognised by an anti-S-Tag antibody for immunocytochemistry or FACS approaches, and on the other hand can reconstitute enzymatic activity by binding with ribonuclease S-protein (C-term portion, amino acids 21-124) in tests of activity in vitro using the FRETWorks S-Tag assay kit (Novagen 70724-3). The ribonuclease thus activated digests an RNA substrate releasing a masked fluorescent agent visualised by FRET (fluorescence resonance energy transfer) and quantified in a 96-well plate in a Beckmann spectrofluorimeter. For these FRET experiments, control CHO cells and GFP fused in the C-term position with hLDLR and mLDLR, which generates strong background noise at the wavelengths used for FRET, was replaced by red fluorescent protein (RFP). The stable cell lines generated for the FRET experiments are thus CHO-RFP and CHO-hLDLR-RFP. Experiments involving the incubation of peptides on various cells expressing hLDLR were performed.
# [5] = system: bovine brain microvascular endothelial cells (BBMEC); experiment: Passage (Pe) across in vitro BBB model
# Procedure: The potential toxic effects of peptides on endothelial cells, the binding/accumulation of peptides in these cells, and the passage by transcytosis of peptides were evaluated on in vitro BBB models. The cells necessary to set up the model (co-culture of endothelial cells from brain microvessels and astrocytes) are bovine cells (bovine brain microvascular endothelial cells, BBMEC) sold by Cellial Technologies (Lens, France).
# The in vitro BBB model brings into play a co-culture of BBMECs and astrocytes. […]
# The culture medium of the lower chamber is collected at various times and fluorescence quantified by fluorimetric analysis. The results are expressed as endothelial surface permeability (Pe) in units of 10^−3 cm/min. […] Transendothelial electrical resistance (TEER), measured with an ohmmeter and expressed in ohm·cm^2, also makes it possible to measure BBB integrity in vitro during tests of passage across the BBB. […]
# This analysis is carried out by measuring by fluorimetry the quantity of fluorescence accumulated in the receiver wells at various times (1 h, 4 h, 24 h). The integrity of the BBB in the various wells analysed was evaluated by simultaneous measurement of the level of LY that passes from one compartment to the other as a function of time.
# [6] = system: bovine brain microvascular endothelial cells (BBMEC); experiment: Binding and/or internalisation in endothelial cells of in vitro BBB model; type: cell-based; details: rhodamine fluorescence after cell lysis, 2 h, 5 h, 24 h
# Procedure: The medium is changed twice per week. […] This BBMEC medium is changed three times per week.
# This analysis was carried out by lysis of endothelial cells at various times (2 h, 5 h, 24 h), and by fluorimetric measurements of the quantity of fluorescence (rhodamine) associated with the cells (membrane and cytoplasmic compartments obtained by centrifugation of these cells after lysis).
# [7] = target: T1, hLDLR; experiment: FACS: binding of bacterial viruses expressing peptides to HUVEC; set-up: endogenous in cells; host or cells: HUVEC (human umbilical vein endothelial cells), not genetically modified
# Procedure: Evaluation by FACS of the interaction between HUVEC and two clones of bacterial viruses expressing peptides, one cyclic (SEQ ID NO: 11), the other linear (SEQ ID NO: 21), with affinity for hLDLR, compared with control bacterial viruses not expressing peptides with affinity for this receptor.
# Qualitative immunocytochemistry was supplemented with quantitative flow cytometry (FACS) with suspended cells (GFP cell line, CHO-hLDLR-GFP cell line, human fibroblasts, HUVEC). These cells were grown in culture medium, mechanically unbound and dissociated (without trypsin), centrifuged, resuspended and incubated in the presence of various bacterial virus clones and anti-LDLR antibody, for 20 min at 4° C. in order to avoid any process of endocytosis. After washings, the bacterial viruses bound to cells were visualised with anti-viral envelope protein antibody. FACS analyses were carried out with a FACSCanto system (Becton Dickinson) using BD FACSDiva software. The number of positive cells was standardised with 5,000 events for each test. The results were expressed in arbitrary units of fluorescence.
# FIGS. 9, 10, 11 correspond to the results obtained for peptides SEQ ID NO: 11, SEQ ID NO: 12 and SEQ ID NO: 21 on cells of the CHO-hLDLR-GFP cell line (FIG. 9), human fibroblasts (FIG. 10) and HUVEC (FIG. 11).
# [8] = target: T1, hLDLR; experiment: FACS on HUVEC: competition between peptides expressed by bacterial viruses and natural ligand LDL; type: binding; set-up: endogenous in cells; host or cells: HUVEC (human umbilical vein endothelial cells), not genetically modified
# Excerpt: Evaluation by FACS on HUVEC of competition between the peptides expressed by the bacterial viruses with affinity for LDLR and its natural ligand LDL.
# I—Graph representing the percentage of shift of the fluorescence signal in zone Q2 of graphs A-H obtained by FACS. […] Adding LDL leads to an 85% loss of signal in Q2 in […], indicating competition between the bacterial virus corresponding to peptide sequence SEQ ID NO: 21 and LDL at the site where LDL binds to hLDLR. The equally strong signal in Q2 of the bacterial viruses that express peptide SEQ ID NO: 11 (shift greater than 70% compared to control bacterial viruses) is only slightly shifted (17%) by adding LDL.
# First, it is shown that the binding rate of bacterial viruses expressing peptides with affinity for hLDLR (SEQ ID NO: 21 and SEQ ID NO: 11 are used here as examples) is proportional to the level of LDLR expression by HUVEC. FACS experiments carried out in the presence of LDL made it possible to show and quantify a strong shift (85%) of LDL by linear peptides (for example SEQ ID NO: 21), but a small shift (17%) by cyclic peptides (for example SEQ ID NO: 11).
# [9] = mouse in situ brain perfusion, BBB, 5 min, perfusate flow rate 2 ml/min, tritiated peptide
# T1 sequence (P01130 22-860): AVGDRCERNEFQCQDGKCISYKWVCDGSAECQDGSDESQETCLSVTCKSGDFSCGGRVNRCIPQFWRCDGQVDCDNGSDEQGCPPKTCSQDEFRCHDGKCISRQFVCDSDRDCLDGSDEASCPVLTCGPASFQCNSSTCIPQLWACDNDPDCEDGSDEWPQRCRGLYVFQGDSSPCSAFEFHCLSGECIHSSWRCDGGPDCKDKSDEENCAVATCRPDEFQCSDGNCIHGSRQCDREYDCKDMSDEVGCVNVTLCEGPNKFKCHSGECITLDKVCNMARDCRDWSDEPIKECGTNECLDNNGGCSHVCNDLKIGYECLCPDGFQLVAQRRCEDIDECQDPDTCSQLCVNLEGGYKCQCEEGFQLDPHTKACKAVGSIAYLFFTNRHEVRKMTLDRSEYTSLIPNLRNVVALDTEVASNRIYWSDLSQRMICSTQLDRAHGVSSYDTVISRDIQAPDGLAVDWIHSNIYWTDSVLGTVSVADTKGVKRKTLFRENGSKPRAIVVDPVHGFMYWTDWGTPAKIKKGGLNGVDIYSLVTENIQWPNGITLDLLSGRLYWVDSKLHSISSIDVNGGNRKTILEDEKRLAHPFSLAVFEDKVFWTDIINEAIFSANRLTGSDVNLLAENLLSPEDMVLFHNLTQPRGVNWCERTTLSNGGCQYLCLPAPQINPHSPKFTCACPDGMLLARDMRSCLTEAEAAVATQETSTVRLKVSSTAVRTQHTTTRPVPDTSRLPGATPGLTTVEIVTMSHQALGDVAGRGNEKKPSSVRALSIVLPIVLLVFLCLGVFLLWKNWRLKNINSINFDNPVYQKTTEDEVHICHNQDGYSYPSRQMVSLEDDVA
substance,measurement,setting,value
(D)-CMPRLRGC [SEQ ID NO: 48],Kin across the blood-retinal barrier (BRB),"[1]; mouse, in vivo",2.4±0.3 ×10^−4 ml/s/g
same,Kin (brain transport or transfer coefficient),"[2]; mouse, in vivo",4.8±0.4 ×10^−4 ml/s/g
same,"improvement of passage in the brain, factor vs SEQ ID NO: 11","[2]; mouse, in vivo",1.37
same,in vitro affinity for LDLR (displacement of SEQ ID NO: 11/S-Tag),[3],excellent affinity
Y-(D)-AGFLRGFAL-(D)-CMPRLRGC (Y[dA]GFLRGFAL[dC]MPRLRGC; cysteine pairing not given here) [SEQ ID NO: 72],Kin across the blood-retinal barrier (BRB),"[1]; mouse in situ perfusion, BRB",11.5±3.3 ×10^−4 ml/s/g
same,"BRB crossing, factor vs non-vectorised free dalargin (SEQ ID NO: 74)","[1]; ratio of Kin, BRB",6.39
same,Kin (brain transport or transfer coefficient),[2]; [9],19.6±3.9 ×10^−4 ml/s/g
same,"passage in the brain, factor vs non-vectorised free dalargin (SEQ ID NO: 74)","[2]; ratio of Kin, BBB",21.78
SEQ ID NO: 1 conjugated with rhodamine: peptide SEQ ID NO: 1 conjugated in the C-term position with rhodamine via a spacer of three Gly residues (HLDCMPRGCFRNGGG-Rhodamine; cysteine pairing not given here; reading uncertain),binding to cells expressing hLDLR,[4],bind well to CHO-LDLR-GFP cells
same,endocytosis / intracellular accumulation,[4],incorporated by endocytosis
same,endocytosis / intracellular accumulation,[4]; listed as SEQ ID NO: 1/rhodamine,high levels of intracellular staining
same,rate of passage (Pe) across in vitro BBB,[5]; 1 h and 4 h,cannot be distinguished from nonspecific or paracellular passage
same,rate of passage (Pe) across in vitro BBB,[5]; 24 h,quite significantly higher than that of the control peptide
same,binding and/or internalisation rate in endothelial cells,[6],more affinity for endothelial cells in an in vitro BBB model than the control peptide
TPSAHAMALQSLSVG [SEQ ID NO: 21],shift of the signal in Q2 (FACS),"[7]; peptide expressed by bacterial virus clone, vs control bacterial viruses",significant shift
same,percentage of shift of the fluorescence signal in zone Q2,"[7]; peptide expressed by bacterial viruses, without LDL",more than 55.8%
same,effect of LDL on binding of peptides expressed by bacterial viruses,"[8]; FACS, LDL added",strongly decreases the binding
same,loss/shift of signal in Q2 on adding LDL,"[8]; peptide expressed by bacterial viruses, in the presence of LDL",85%
"Y-(D)-AGFLR (Y[dA]GFLR) [SEQ ID NO: 74, analgesic therapeutic peptide, dalargin, reference compound]",Kin across the blood-retinal barrier (BRB),"[1]; mouse in situ perfusion, BRB",1.8±0.2 ×10^−4 ml/s/g
same,Kin (brain transport or transfer coefficient),[2]; [9],0.9±0.1 ×10^−4 ml/s/g
"CMPRC [SEQ ID NO: 73, control peptide for the brain perfusion study, reference compound]",Kin across the blood-retinal barrier (BRB),"[1]; mouse, in vivo",0.0±0.0 ×10^−4 ml/s/g
same,Kin (brain transport or transfer coefficient),"[2]; mouse, in vivo",1.5±0.2 ×10^−4 ml/s/g
